This note sets out measurements from PMC11303814 (Nature Communications, 2024).

This data set deals with the molecule itself. In words: cryo-EM structure.

B1: full-length wild-type rat P2X7 receptor (receptor, UniProt Q64663 1-595, looked up)
chain: MPACCSWNDVFQYETNKVTRIQSVNYGTIKWILHMTVFSYVSFALMSDKLYQRKEPLISSVHTKVKGVAEVTENVTEGGVTKLVHGIFDTADYTLPLQGNSFFVMTNYLKSEGQEQKLCPEYPSRGKQCHSDQGCIKGWMDPQSKGIQTGRCIPYDQKRKTCEIFAWCPAEEGKEAPRPALLRSAENFTVLIKNNIDFPGHNYTTRNILPGMNISCTFHKTWNPQCPIFRLGDIFQEIGENFTEVAVQGGIMGIEIYWDCNLDSWSHRCQPKYSFRRLDDKYTNESLFPGYNFRYAKYYKENGMEKRTLIKAFGVRFDILVFGTGGKFDIIQLVVYIGSTLSYFGLATVCIDLIINTYASTCCRSRVYPSCKCCEPCAVNEYYYRKKCEPIVEPKPTLKYVSFVDEPHIWMVDQQLLGKSLQDVKGQEVPRPQTDFLELSRLSLSLHHSPPIPGQPEEMQLLQIEAVPRSRDSPDWCQCGNCLPSQLPENRRALEELCCRRKPGQCITTSELFSKIVLSREALQLLLLYQEPLLALEGEAINSKLRHCAYRSYATWRFVSQDMADFAILPSCCRWKIRKEFPKTQGQYSGFKYPY
modifications: limited glycosylation and acylation included in the models (sites not given)
Consider B1, for which the binding result is reported as “binds”.
